Measurements: publication PMC12637829 (Research Square, 2025)

Target: the molecule itself
Assay: cryo-EM structure; amyloid fibrils polymerised from monomer at 4°C with seeds (5% mol/mol) in 5 mM KPi, 150 mM NaCl, pH 7.4, without agitation; third-generation (G3) fibrils

B1: Sup35NM S17R (domain or fragment, yeast, UniProt P05453 1-253, looked up)
chain: MSDSNQGNNQQNYQQYRQNGNQQQGNNRYQGYQAYNAQAQPAGGYYQNYQGYSGYQQGGYQQYNPDAGYQQQYNPQGGYQQYNPQGGYQQQFNPQGGRGNYKNFNYNNNLQGYQAGFQPQSQGMSLNDFQKQQKQAAPKPKKTLKLVSSSGIKLANATKKVGTKPAESDKKEEEKSAETKEPTKEPTKVEEPVKKEEKPVQTEEKTEEKSELPKVEDLKISESTHNTNNANVTSADALIKEQEEEVDDEVVND
notes: Sup35, yeast translation termination factor; NM domain = N-terminal prion domain (N or PrD) plus the polar M region (M124-D253), with S17R; In the fibril, many copies are stacked along the axis; also called S17R mutant; S17R4 (fibrils formed at 4°C); not shown: 7x histidine, C-terminal, kept
binding result: binds
